Here are results for five sequences from the supplement of paper PMC5998384.

In series [1] the test system is HeLa Kyoto. Nature of the series: solubility change mitosis vs G1/S (difference of NP-40 vs SDS log2 ratios) (log2 ratio difference); higher = more soluble in mitosis.
In series [2] the test system is HeLa Kyoto. The experiment in a line: thermal stability score vs G1/S (z-score of summed log2 fold changes over temperatures); higher = more thermally stable than in G1/S.
Series [3] relates to HeLa Kyoto. The experiment in a line: melting temperature (median over replicates), in situ; higher = more thermally stable.
Series [4] concerns HeLa Kyoto. The experiment in a line: solubility in G1/S (NP-40 vs SDS abundance) (log2 ratio); higher = more soluble. The following applies: cell cycle stage: G1/S.
The mark [5] stands for this setting: cell cycle stage: early G1 (4.5 h after nocodazole release).
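Wherever melting temperature (median over replicates), in situ is given: HeLa Kyoto cells synchronized by double thymidine or nocodazole block, proteins quantified by TMT10plex mass spectrometry, three independent biological replicates.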
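Wherever solubility change mitosis vs G1/S (difference of NP-40 vs SDS log2 ratios) is given: synchronized HeLa Kyoto cells (double thymidine block for G1/S, nocodazole release for mitosis), protein amounts in NP-40 versus SDS lysates quantified by mass spectrometry, three biological replicates.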
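Wherever solubility in G1/S (NP-40 vs SDS abundance) is given: HeLa Kyoto cells arrested at G1/S by double thymidine block, proteins quantified by TMT10plex mass spectrometry in mild NP-40 versus SDS extracts, three biological replicates.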
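Wherever thermal stability score vs G1/S (z-score of summed log2 fold changes over temperatures) is given: synchronized HeLa Kyoto cells, proteins quantified by TMT10plex mass spectrometry, three biological replicates, mitosis taken 0.5 h after nocodazole release, G1/S directly after double thymidine block.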

Take “MAAPGAPAEYGYIRTVLGQQILGQLDSSSLALPSEAKLKLAGSSGRGGQTVKSLRIQEQVQQTLARKGRSSVGNGNLHRTSSVPEYVYNLHLVENDFVGGRSPVPKTYDMLKAGTTATYEGRWGRGTAQYSSQKSVEERSLRHPLRRLEISPDSSPERAHYTHSDYQYSQRSQAGHTLHHQESRRAALLVPPRYARSEIVGVSRAGTTSRQRHFDTYHRQYQHGSVSDTVFDSIPANPALLTYPRPGTSRSMGNLLEKENYLTAGLTVGQVRPLVPLQPVTQNRASRSSWHQSSFHSTRTLREAGPSVAVDSSGRRAHLTVGQAAAGGSGNLLTERSTFTDSQLGNADMEMTLERAVSMLEADHMLPSRISAAATFIQHECFQKSEARKRVNQLRGILKLLQLLKVQNEDVQRAVCGALRNLVFEDNDNKLEVAELNGVPRLLQVLKQTRDLETKKQITDHTVNLRSRNGWPGAVAHACNPSTLGGQGGRITRSGVRDQPDQHGLLWNLSSNDKLKNLMITEALLTLTENIIIPFSGWPEGDYPKANGLLDFDIFYNVTGCLRNMSSAGADGRKAMRRCDGLIDSLVHYVRGTIADYQPDDKATENCVCILHNLSYQLEAELPEKYSQNIYIQNRNIQTDNNKSIGCFGSRSRKVKEQYQDVPMPEEKSNPKGVEWLWHSIVIRMYLSLIAKSVRNYTQEASLGALQNLTAGSGPMPTSVAQTVVQKESGLQHTRKMLHVGDPSVKKTAISLLRNLSRNLSLQNEIAKETLPDLVSIIPDTVPSTDLLIETTASACYTLNNIIQNSYQNARDLLNTGGIQKIMAISAGDAYASNKASKAASVLLYSLWAHTELHHAYKKAQFKKTDFVNSRTAKAYHSLKD [PKP2]”: the “solubility change mitosis (log2)” value with HeLa Kyoto [1] amounted to 0.0433. Moreover, the thermal stability score was -1.03 with HeLa Kyoto [2] (setting [5]) and -0.99 in the series on HeLa Kyoto [2] (cell cycle stage: mitosis). Further, the figures for the melting temperature in the series with HeLa Kyoto [3] (cell cycle stage: G1/S) and in the series on HeLa Kyoto [3] (cell cycle stage: mitosis) were 50.7 °C and 49.9 °C, respectively. Further, in the series with HeLa Kyoto [4], the “solubility in G1/S (log2)” value was -0.953.

Take “MAAPGLRLGAGRLFEMPAVLERLSRYNSTSQAFAEVLRLPKQQLRKLLYPLQEVERFLAPYGRQDLHLRIFDPSPEDIARADNIFTATERNRIDYVSSAVRIDHAPDLPRPEVCFIGRSNVGKSSLIKALFSLAPEVEVRVSKKPGHTKKMNFFKVGKHFTVVDMPGYGFRAPEDFVDMVETYLKERRNLKRTFLLVDSVVGIQKTDNIAIEMCEEFALPYVIVLTKIDKSSKGHLLKQVLQIQKFVNMKTQGCFPQLFPVSAVTFSGIHLLRCFIASVTGSLD [GTPBP8]”: in the series with HeLa Kyoto [1], the “solubility change mitosis (log2)” value was -0.0931. Further, the values for the thermal stability score with HeLa Kyoto [2] (setting [5]) and in the series with HeLa Kyoto [2] (cell cycle stage: mitosis) were -0.696 and 0.105, respectively. The melting temperature in the series on HeLa Kyoto [3] (cell cycle stage: G1/S) worked out at 50.8 °C; with HeLa Kyoto [3] (cell cycle stage: mitosis), 52.8 °C. Besides, the “solubility in G1/S (log2)” value in the series on HeLa Kyoto [4] amounted to 0.0451.

As to “MAAPGPALCLFDVDGTLTAPRQKITKEMDDFLQKLRQKIKIGVVGGSDFEKVQEQLGNDVVEKYDYVFPENGLVAYKDGKLLCRQNIQSHLGEALIQDLINYCLSYIAKIKLPKKRGTFIEFRNGMLNVSPIGRSCSQEERIEFYELDKKENIRQKFVADLRKEFAGKGLTFSIGGQISFDVFPDGWDKRYCLRHVENDGYKTIYFFGDKTMPGGNDHEIFTDPRTMGYSVTAPEDTRRICELLFS [PMM2]”, the “solubility change mitosis (log2)” value in the series on HeLa Kyoto [1] was -0.0066. The thermal stability score in the series on HeLa Kyoto [2] (setting [5]) stood at 12.5; in the series with HeLa Kyoto [2] (cell cycle stage: mitosis), 3.25. Further, the melting temperature in the series with HeLa Kyoto [3] (cell cycle stage: G1/S) turned out to be 53 °C; with HeLa Kyoto [3] (cell cycle stage: mitosis), 53.3 °C. Besides, the “solubility in G1/S (log2)” value with HeLa Kyoto [4] was 0.526.

With “MAAPGSCALWSYCGRGWSRAMRGCQLLGLRSSWPGDLLSARLLSQEKRAAETHFGFETVSEEEKGGKVYQVFESVAKKYDVMNDMMSLGIHRVWKDLLLWKMHPLPGTQLLDVAGGTGDIAFRFLNYVQSQHQRKQKRQLRAQQNLSWEEIAKEYQNEEDSLGGSRVVVCDINKEMLKVGKQKALAQGYRAGLAWVLGDAEELPFDDDKFDIYTIAFGIRNVTHIDQALQEAHRVLKPGGRFLCLEFSQVNNPLISRLYDLYSFQVIPVLGEVIAGDWKSYQYLVESIRRFPSQEEFKDMIEDAGFHKVTYESLTSGIVAIHSGFKL [COQ5]”, the “solubility change mitosis (log2)” value with HeLa Kyoto [1] amounted to 0.0212. Moreover, the thermal stability score is -1.07 with HeLa Kyoto [2] (setting [5]) and -0.586 in the series with HeLa Kyoto [2] (cell cycle stage: mitosis). The melting temperature was found to be 54.4 °C with HeLa Kyoto [3] (cell cycle stage: G1/S) and 56.3 °C with HeLa Kyoto [3] (cell cycle stage: mitosis). Besides, the “solubility in G1/S (log2)” value in the series with HeLa Kyoto [4] was -0.0892.

“MAAPILRSFSWGRWSGTLNLSVLLPLGLRKAHSGAQGLLAAQKARGLFKDFFPETGTKIELPELFDRGTASFPQTIYCGFDPTADSLHVGHLLALLGLFHLQRAGHNVIALVGGATARLGDPSGRTKEREALETERVRANARALRLGLEALAANHQQLFTDGRSWGSFTVLDNSAWYQKQHLVDFLAAVGGHFRMGTLLSRQSVQLRLKSPEGMSLAEFFYQVLQAYDFYYLFQRYGCRVQLGGSDQLGNIMSGYEFINKLTGEDVFGITVPLITSTTGAKLGKSAGNAVWLNRDKTSPFELYQFFVRQPDDSVERYLKLFTFLPLPEIDHIMQLHVKEPERRGPQKRLAAEVTKLVHGREGLDSAKRCTQALYHSSIDALEVMSDQELKELFKEAPFSEFFLDPGTSVLDTCRKANAIPDGPRGYRMITEGGVSINHQQVTNPESVLIVGQHILKNGLSLLKIGKRNFYIIKWLQL [YARS2]”: in the series on HeLa Kyoto [1], the “solubility change mitosis (log2)” value is -0.0352. Besides, the thermal stability score in the series with HeLa Kyoto [2] (setting [5]) was found to be 0.871; in the series on HeLa Kyoto [2] (cell cycle stage: mitosis) it was 4.36. The melting temperature in the series on HeLa Kyoto [3] (cell cycle stage: G1/S) was 48.8 °C; with HeLa Kyoto [3] (cell cycle stage: mitosis) it was 48.2 °C. Further, in the series on HeLa Kyoto [4], the “solubility in G1/S (log2)” value was 0.027.
